According to patent US20230227584A1 (published 2023):

B1: P1AE1116 GITR(852.2) x FAP (4B9) (2+1) C-terminal crossfab fusion (bispecific antibody, human IgG1, kappa, L234A L235A)
heavy 1: not shown
heavy 2: EVQLVESGGGLVQPGGSLRLSCAASGFTFSSYTMKWVRQTPGKGLEWVSVISADGGTTDHAASVKGRFTVSRDNSKNMLYLQMNSLRAEDTAIYYCAKDRANDWITGASFDYWGQGALVTVSSASTKGPSVFPLAPSSKSTSGGTAALGCLVEDYFPEPVTVSWNSGALTSGVHTFPAVLQSSGLYSLSSVVTVPSSSLGTQTYICNVNHKPSNTKVDEKVEPKSCDKTHTCPPCPAPEAAGGPSVFLFPPKPKDTLMISRTPEVTCVVVDVSHEDPEVKFNWYVDGVEVHNAKTKPREEQYNSTYRVVSVLTVLHQDWLNGKEYKCKVSNKALGAPIEKTISKAKGQPREPQVCTLPPSRDELTKNQVSLSCAVKGFYPSDIAVEWESNGQPENNYKTTPPVLDSDGSFFLVSKLTVDKSRWQQGNVFSCSVMHEALHNHYTQKSLSLSP
light 1: DIQMTQSPSSLSASVGDRVTITCRASQSINSYLNWYQQKPGNAPKLLIYAASSLQSGVPSRFSGSGSGTEFTLTISSLQPEDLATYYCQQARSFPLTFGGGTKVEIKRTVAAPSVFIFPPSDRKLKSGTASVVCLLNNFYPREAKVQWKVDNALQSGNSQESVTEQDSKDSTYSLSSTLTLSKADYEKHKVYACEVTHQGLSSPVTKSFNRGEC
light 2: EIVLTQSPGTLSLSPGERATLSCRASQSVTSSYLAWYQQKPGQAPRLLINVGSRRATGIPDRFSGSGSGTDFTLTISRLEPEDFAVYYCQQGIMLPPTFGQGTKVEIKSSASTKGPSVFPLAPSSKSTSGGTAALGCLVKDYFPEPVTVSWNSGALTSGVHTFPAVLQSSGLYSLSSVVTVPSSSLGTQTYICNVNHKPSNTKVDKKVEPKSC
notes: 2+1 format; Human IgG1 Fc, knob-into-hole, PGLALA; VL-CH1 chain ends in EPKSC
B2: P1AE8875 OX40(MOXR0916) x FAP(1G1a) 3+1 (bispecific antibody, human IgG1, kappa, L234A L235A)
heavy 1: not shown
heavy 2: EVQLVQSGAEVKKPGASVKVSCKASGYTFTDSYMSWVRQAPGQGLEWIGDMYPDNGDSSYNQKFRERVTITRDTSTSTAYLELSSLRSEDTAVYYCVLAPRWYFSVWGQGTLVTVSSASTKGPSVFPLAPSSKSTSGGTAALGCLVEDYFPEPVTVSWNSGALTSGVHTFPAVLQSSGLYSLSSVVTVPSSSLGTQTYICNVNHKPSNTKVDEKVEPKSCGGGGSGGSGGEVQLVQSGAEVKKPGASVKVSCKASGYTFTDSYMSWVRQAPGQGLEWIGDMYPDNGDSSYNQKFRERVTITRDTSTSTAYLELSSLRSEDTAVYYCVLAPRWYFSVWGQGTLVTVSSASTKGPSVFPLAPSSKSTSGGTAALGCLVEDYFPEPVTVSWNSGALTSGVHTFPAVLQSSGLYSLSSVVTVPSSSLGTQTYICNVNHKPSNTKVDEKVEPKSCDKTHTCPPCPAPEAAGGPSVFLFPPKPKDTLMISRTPEVTCVVVDVSHEDPEVKFNWYVDGVEVHNAKTKPREEQYNSTYRVVSVLTVLHQDWLNGKEYKCKVSNKALGAPIEKTISKAKGQPREPQVCTLPPSRDELTKNQVSLSCAVKGFYPSDIAVEWESNGQPENNYKTTPPVLDSDGSFFLVSKLTVDKSRWQQGNVFSCSVMHEALHNHYTQKSLSLSP
light 1: not shown
light 2: EIVLTQSPATLSLSPGERATLSCRASESVDNYGLSFINWFQQKPGQAPRLLIYGTSNRGSGIPARFSGSGSGTDFTLTISSLEPEDFAVYFCQQSNEVPYTFGGGTKVEIKSSASTKGPSVFPLAPSSKSTSGGTAALGCLVKDYFPEPVTVSWNSGALTSGVHTFPAVLQSSGLYSLSSVVTVPSSSLGTQTYICNVNHKPSNTKVDKKVEPKSC
notes: (2+1)', but its chains are those of a MOXR0916 3+1 molecule ending in EPKSC; Human IgG1 Fc, knob-into-hole, PGLALA; also called MOX0916 3+1; MOXR0916 3+1
B3: P1AE8874 OX40 (CLC563) x FAP (1G1a) (3+1) C-terminal crossfab fusion (bispecific antibody, human IgG1, kappa, L234A L235A)
heavy 1: not shown
heavy 2: not shown
light 1: not shown
light 2: EIVLTQSPATLSLSPGERATLSCRASESVDNYGLSFINWFQQKPGQAPRLLIYGTSNRGSGIPARFSGSGSGTDFTLTISSLEPEDFAVYFCQQSNEVPYTFGGGTKVEIKSSASTKGPSVFPLAPSSKSTSGGTAALGCLVKDYFPEPVTVSWNSGALTSGVHTFPAVLQSSGLYSLSSVVTVPSSSLGTQTYICNVNHKPSNTKVDKKVEPKSC
notes: 3+1 format; Human IgG1 Fc, knob-into-hole, PGLALA; VL-CH1 chain ends in EPKSC; also called CLC-563 3+1
B4: P1AE8871 OX40 (CLC563) x FAP (1G1a) (2+1) C-terminal crossfab fusion (bispecific antibody, human IgG1, kappa, L234A L235A)
heavy 1: not shown
heavy 2: not shown
light 1: not shown
light 2: EIVLTQSPATLSLSPGERATLSCRASESVDNYGLSFINWFQQKPGQAPRLLIYGTSNRGSGIPARFSGSGSGTDFTLTISSLEPEDFAVYFCQQSNEVPYTFGGGTKVEIKSSASTKGPSVFPLAPSSKSTSGGTAALGCLVKDYFPEPVTVSWNSGALTSGVHTFPAVLQSSGLYSLSSVVTVPSSSLGTQTYICNVNHKPSNTKVDKKVEPKSC
notes: 2+1 format; Human IgG1 Fc, knob-into-hole, PGLALA; VL-CH1 chain ends in EPKSC; also called CLC-563 2+1
B5: P1AE8872 OX40 (MOXR0916) x FAP (1G1a) (2+1) C-terminal crossfab fusion (bispecific antibody, human IgG1, kappa, L234A L235A)
heavy 1: not shown
heavy 2: EVQLVQSGAEVKKPGASVKVSCKASGYTFTDSYMSWVRQAPGQGLEWIGDMYPDNGDSSYNQKFRERVTITRDTSTSTAYLELSSLRSEDTAVYYCVLAPRWYFSVWGQGTLVTVSSASTKGPSVFPLAPSSKSTSGGTAALGCLVEDYFPEPVTVSWNSGALTSGVHTFPAVLQSSGLYSLSSVVTVPSSSLGTQTYICNVNHKPSNTKVDEKVEPKSCDKTHTCPPCPAPEAAGGPSVFLFPPKPKDTLMISRTPEVTCVVVDVSHEDPEVKFNWYVDGVEVHNAKTKPREEQYNSTYRVVSVLTVLHQDWLNGKEYKCKVSNKALGAPIEKTISKAKGQPREPQVCTLPPSRDELTKNQVSLSCAVKGFYPSDIAVEWESNGQPENNYKTTPPVLDSDGSFFLVSKLTVDKSRWQQGNVFSCSVMHEALHNHYTQKSLSLSP
light 1: not shown
light 2: EIVLTQSPATLSLSPGERATLSCRASESVDNYGLSFINWFQQKPGQAPRLLIYGTSNRGSGIPARFSGSGSGTDFTLTISSLEPEDFAVYFCQQSNEVPYTFGGGTKVEIKSSASTKGPSVFPLAPSSKSTSGGTAALGCLVKDYFPEPVTVSWNSGALTSGVHTFPAVLQSSGLYSLSSVVTVPSSSLGTQTYICNVNHKPSNTKVDKKVEPKSC
notes: 2+1 format; Human IgG1 Fc, knob-into-hole, PGLALA; VL-CH1 chain ends in EPKSC; also called MOX0916 2+1; MOXR0916 2+1
B6: P1AD3690 untargeted tetravalent OX40 (49B4) antigen binding molecule (4+0) (antibody, V domains shown)
VH: QVQLVQSGAEVKKPGSSVKVSCKASGGTFSSYAISWVRQAPGQGLEWMGGIIPIFGTANYAQKFQGRVTITADKSTSTAYMELSSLRSEDTAVYYCAREYYRGPYDYWGQGTTVTVSS
VL: DIQMTQSPSTLSASVGDRVTITCRASQSISSWLAWYQQKPGKAPKLLIYDASSLESGVPSRFSGSGSGTEFTLTISSLQPDDFATYYCQQYSSQPYTFGQGTKVEIK

What was measured:
[1] = molecular target: human FAP (soluble second analyte, SPR) (human, UniProt Q12884 26-760); test: SPR (Biacore T200), biotinylated human GITR Fc(kih) on SA chip, bispecific at 200 nM, then human FAP at 500 nM
Description: The capacity of binding simultaneously human GITR Fc(kih) and human FAP can be assessed by surface plasmon resonance (SPR). All SPR experiments are performed on a Biacore T200 at 25° C. with HBS-EP as running buffer (0.01 M HEPES pH 7.4, 0.15 M NaCl, 3 mM EDTA, 0.005% Surfactant P20, Biacore, Freiburg/Germany). […] Immobilization levels up to 1000 resonance units (RU) are used. The bispecific antibodies targeting GITR and FAP are passed at a concentration range of 200 nM with a flow of 30 µL/minute through the flow cells over 90 seconds and dissociation was set to zero sec. Human FAP is injected as second analyte with a flow of 30 µL/minute through the flow cells over 90 seconds at a concentration of 500 nM. The dissociation is monitored for 120 sec. Bulk refractive index differences are corrected for by subtracting the response obtained in a reference flow cell, where no protein is immobilized.

[2] = molecular target: T1, human OX40 on the cell surface (activated human T cells; HeLa_hOx40_NFkB_Luc1 reporter cells) (human, UniProt P43489 29-277); test: cell-based or functional assay
T1 sequence: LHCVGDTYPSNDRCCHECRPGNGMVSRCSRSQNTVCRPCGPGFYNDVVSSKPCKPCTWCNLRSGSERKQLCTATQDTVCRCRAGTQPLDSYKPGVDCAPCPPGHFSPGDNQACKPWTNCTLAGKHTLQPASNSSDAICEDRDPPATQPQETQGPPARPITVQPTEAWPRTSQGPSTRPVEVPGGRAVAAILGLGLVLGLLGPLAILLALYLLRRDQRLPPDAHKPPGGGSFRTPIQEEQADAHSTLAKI

[3] = molecular target: T1, human OX40 on the cell surface …; test: cell-based or functional assay; remark: listed apart in the source
[4] = molecular target: T2, human fibroblast activation protein (huFAP) on NIH/3T3-huFAP clone 19 cells (human, UniProt Q12884 1-760); test: flow cytometry, NIH/3T3-huFAP clone 19 cells
T2 construct: Mouse NIH/3T3 fibroblasts transfected with vector pETR4921 to express huFAP; also called cell surface FAP
Description: In another experiment, a mixture of 2 × 10⁵ NIH/3T3-huFAP clone 19 cells and HeLa cells in FACS buffer were added to each well of a round-bottom 96-well plates (TPP, Cat. No. 92097) and the binding assay was performed. Cells were first stained 20 min with LIVE/DEAD™ Fixable Aqua Dead Cell Stain (Molecular probes, Cat.No. L34957) in DPBS, followed after one washing step with 200 µL 4° C. […] Afterwards the cells were washed once with 200 µL FACS buffer at 4° C. and resuspended by a short vortex. Cells were further stained with 50 µL/well of 4° C. cold secondary antibody solution containing Phycoerythrin (PE)-conjugated AffiniPure anti-human IgG Fcy-fragment-specific goat IgG F(ab′)2 fragment (Jackson ImmunoResearch, Cat. No. 109-116-098) and incubated for 30 minutes at 4° C. in the dark. Samples were finally resuspended in 100 µL/well FACS-buffer and acquired the same day using with BD Fortessa running FACS Diva software.

[5] = molecular target: T1, human OX40 on the cell surface …; test: flow cytometry, activated human PBMC gated on CD4+ T cells
[6] = molecular target: T3, FcRn (biotinylated, coupled to streptavidin-sepharose); test: FcRn affinity chromatography; retention compared to protein standards with known affinities
T3 construct: also called neonatal Fc receptor
Description: For coupling, the prepared receptor was added to streptavidin-sepharose (GE Healthcare). The resulting FcRn-sepharose matrix was packed in a column housing. The column was equilibrated with 20 mM 2-(N-morpholine)-ethanesulfonic acid (MES) and 140 mM NaCl, pH 5.5 (eluent A) at a 0.5 ml/min flow rate. 30 µg of antibody samples were diluted at a volume ratio of 1: 1 with eluent A and applied to the FcRn column. The column was washed with 5 column volumes of eluent A followed by elution with a linear gradient from 20 to 100% 20 mM Tris/HCl and 140 mM NaCl, pH 8.8 (eluent B) in 35 column volumes. The analysis was performed with a column oven at 25° C. The elution profile was monitored by continuous measurement of the absorbance at 280 nm. Retention times were compared to protein standards with known affinities.

T3 sequence (P55899 24-297, chain 1 of 2): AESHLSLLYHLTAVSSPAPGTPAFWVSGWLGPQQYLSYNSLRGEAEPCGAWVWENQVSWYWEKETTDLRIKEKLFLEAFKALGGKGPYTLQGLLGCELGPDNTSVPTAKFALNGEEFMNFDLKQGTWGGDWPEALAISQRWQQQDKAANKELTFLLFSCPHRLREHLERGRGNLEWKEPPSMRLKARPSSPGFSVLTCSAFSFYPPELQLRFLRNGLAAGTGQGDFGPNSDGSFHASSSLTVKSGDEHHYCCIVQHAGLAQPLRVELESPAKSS
T3 sequence (P61769 21-119, chain 2 of 2, further chain): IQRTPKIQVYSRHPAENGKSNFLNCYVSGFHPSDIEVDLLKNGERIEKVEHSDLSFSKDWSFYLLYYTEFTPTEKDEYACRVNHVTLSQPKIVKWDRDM

| Binder | binding result [1] | EC50 of NFκB activation (luciferase), HeLa_hOx40_NFkB_Luc1, w/ hu FAP [2] [nM] | EC50 of NFκB activation (luciferase), HeLa_hOx40_NFkB_Luc1, w/o [2] [nM] | CD25 upregulation on CD4+ T cells, AUC compared to reference compound [%] [3] [%] | EC50 of CD25 upregulation on CD4+ T cells, suboptimal TCR stimulation of human PBMC with NIH/3T3-huFAP cells [3] [nM] | EC50 [4] [nM] | EC50 [5] [nM] | FcRn affinity [6] |
| --- | --- | --- | --- | --- | --- | --- | --- | --- |
| B1 | binds | – | – | – | – | – | – | – |
| B2 | – | 0.31 | 3.94 | 100 | 0.02 | 2.7 | 0.69 | -0.22 |
| B3 | – | 0.24 | 0.79 | 100 | 0.04 | 2.52 | 3.62 | -0.14 |
| B4 | – | 0.21 | – | 99 | 0.06 | 2.51 | 3.19 | – |
| B5 | – | 0.19 | – | 106 | 0.01 | 1.78 | 0.9 | 0.15 |
| B6 | – | 0.18 | 0.23 | 13 | – | – | – | – |
